Data on one substance can be found in US20170119874A1.

For the experiment, the target named is cellular receptor used by the virus to infect target cells (ARPE 19 epithelial cells). Nature of the experiment: cell-based or functional assay.

Consider “soluble HCMV pentameric complex (gH, gL, pUL128, pUL130, pUL131), purified, tag-free, produced in CHO-K1SV cells (from UniProt P12824 26-713; Q68672 32-278; P16837 23-171; F5HCP3 28-213; F5HET4 19-129)”, for which the IC50, inhibition of HCMV infection of ARPE 19 epithelial cells (complex pre-incubated with the target cells) amounted to 1.9 nM.
